These are literature values, as cited in article PMC3726680.

This data set concerns the target HER2 (Homo sapiens) (UniProt P04626).

A word on the Kd: it is the equilibrium constant for the complex coming apart. In the case of trastuzumab, the Kd was 0.1 nM.
